The target of the assay is CHIP (UniProt Q9UNE7). Nature of the assay: co-IP with anti-MYC-agarose, Western blot. The conditions noted are these: reference: Flag-IRS4 wild type; sites S859. Background: A western blot detects proteins with antibodies after separation by electrophoresis.

Take “IRS4 (from UniProt O14654) Flag-IRS4 S859A”: the “binding against the reference” value is listed as “lost”.

The values are drawn from publication PMC6037025.
